Results from paper PMC8168904, “The Trypanosoma brucei subpellicular microtubule array is organized into functionally discrete subdomains defined by microtubule associated proteins” (PLoS Pathogens, 2021).

What was measured:
[1] = biological target: Taxol-stabilized bovine microtubules labeled with Cy5 (bovine) (UniProt Q6B856); assay: not stated; (the row names no known assay)
[2] = biological target: T1, mNeonGreen-PAVE1 (Posterior And Ventral Edge protein 1), tagged at both endogenous alleles (T. brucei (endogenous locus, 427 strain), UniProt Q581X9 1-421); assay: affinity purification with mass spectrometry; mNeonGreen-PAVE1 captured from sonicated, clarified T. brucei lysate on magnetic mNeonGreen-Trap nanobody beads, 1 hr 4°C, 6 washes; on-bead tryptic digest and LC-MS/MS, and silver-stained SDS-PAGE of the eluate; WT 427 cells as control; conditions: partners not purified
T1 construct: PAVE1, Trypanosoma brucei, TriTrypDB Tb927.8.2030; expressed from the endogenous locus with an N-terminal tag; also called mNG-PAVE1; dET-mNeonGreen-PAVE1; source: endogenously tagged at both alleles, T. brucei 427 procyclic cells, in sonicated and clarified lysate; not shown: mNeonGreen, N-terminal, kept
T1 sequence (looked up): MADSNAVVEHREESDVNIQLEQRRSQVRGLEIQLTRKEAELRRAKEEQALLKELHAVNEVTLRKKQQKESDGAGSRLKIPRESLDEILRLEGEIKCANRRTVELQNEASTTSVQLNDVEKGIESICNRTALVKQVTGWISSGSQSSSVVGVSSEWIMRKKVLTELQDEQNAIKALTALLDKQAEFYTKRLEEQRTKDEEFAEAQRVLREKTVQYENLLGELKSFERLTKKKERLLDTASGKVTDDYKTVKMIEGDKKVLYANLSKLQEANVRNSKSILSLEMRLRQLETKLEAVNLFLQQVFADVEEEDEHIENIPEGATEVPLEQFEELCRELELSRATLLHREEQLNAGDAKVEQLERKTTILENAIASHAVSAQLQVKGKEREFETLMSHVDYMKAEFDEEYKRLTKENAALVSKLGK

PAVE complex (mNeonGreen-PAVE1 with Strep-PAVE2)
time that pre-seeded patches remained after wash-out [1]: > 20 min

B1: PAVE2 (Tb927.9.11540), endogenous (natural protein, T. brucei (endogenous in 427 cells), UniProt Q38DN4 1-438, looked up)
chain: MADVSADSDAQVELERLNDVIDKYTCQVEHIDNLLQELEEENNSDSVSRQIAEYQSALESHPENIPAEDALEVITRLENTLKIVQRRNHLLEKENGTQNRLLEERSNVLLNATKTFDHIVDVTGWHDKFLFDAEDLRSKVADIREMSNIEAVVQKELRVAQGIIKKKEAALRQLEELVEQGKEQEAVLNNVYNDIRVKERDCSEVEMQLVRLRKSVAKTDEALAVFDLHNQNASLAYMESDRDYLRDSVAEMKSTTRRQDNVIKAQLTRQQQLQTRLDVIMKSLREMKLDKKYERNIPKSALVPSASREEPEDVSKILPESECIPVPTYRLLHKNNEMLRVIVMRKNMLVLEKNAVIEALEAGLAKYGSALITTYKEQQDLRQNKDMELIELMDDLQQQHSNYLEKLEELRLQNAALKKKMYRSTRQHAPLKGTRPMR
notes: PAVE2, Trypanosoma brucei, TriTrypDB Tb927.9.11540, predicted MW 51 kDa; also called uncharacterized protein Tb927.9.11540; source: endogenous, T. brucei 427 lysate (mNeonGreen-PAVE1 cells)
stoichiometry N [2]: ~1
